Results as given in publication PMC3689846 (Science (New York, N.Y.), 2013).

Biological target: eOD-GT6 (germline-targeting engineered outer domain of gp120) (HIV-1 isolate HXB2, engineered outer …)
Experiment: SPR

B1: NIH45-46 (mature) (antibody, V domains shown)
VH: QVRLSQSGGQMKKPGESMRLSCRASGYEFLNCPINWIRLAPGRRPEWMGWLKPRGGAVNYARKFQGRVTMTRDVYSDTAFLELRSLTSDDTAVYFCTRGKYCTARDYYNWDFEHWGRGAPVTVSS
VL: EIVLTQSPATLSLSPGETAIISCRTSQSGSLAWYQQRPGQAPRLVIYSGSTRAAGIPDRFSGSRWGADYNLSISNLESGDFGVYYCQQYEFFGQGTKVQVD
Kd: 4 nM
